# From the supplement of paper PMC11780869
# System: Bacillus subtilis
# Test: cleaved RNA product abundance (RNA/gDNA barcode ratio) relative to median wild-type variant (ratio to wild type); higher = more accumulation of the downstream cleavage product
# How it was run: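 Reporter mRNAs based on truncated aprE or tetM carried barcoded, mutagenized RNase Y cleavage-site windows built from oligos with a 9% error rate and were integrated into the B. subtilis chromosome. Cultures grew in LB at 37°C from OD600 0.0003 to 0.3. Cleaved RNA was gel-selected, reverse transcribed and barcode-sequenced together with genomic DNA barcodes, and UMIs were collapsed. Cleaved product abundance is the per-construct ratio of RNA to gDNA barcodes, scaled to the median of constructs carrying the unmutated site.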
# [1] = experiment (reporter, strain, medium): exp 2b: truncated aprE reporter, strain BJT200, cleavage site: cggR-gapA (positions -7 to +36 mutated)
# [2] = experiment (reporter, strain, medium): exp 4a: truncated aprE reporter, strain BJT201 with 2% xylose (RNase J1 expressed), cleavage site: cggR-gapA (positions -7 to +36 mutated)
# [3] = experiment (reporter, strain, medium): exp 8a: truncated aprE reporter, strain BJT201 with 2% xylose (RNase J1 expressed), cleavage site: glnRA (positions -5 to +31 mutated)
# [4] = experiment (reporter, strain, medium): exp 6: tetM reporter, strain 168, cleavage site: cggR-gapA (positions -7 to +36 mutated)
Sequence,cleaved RNA product abundance [1],cleaved RNA product abundance [2],cleaved RNA product abundance [3],other results
ACAGACGAAGGAGCCGCAAAGAAGTTATTAATGGATGAATAGTCCCTCAATATAAATATCTCTCACTTATTTAAA,0.0972,–,–,–
ACAGACGAAGGAGCCGCAAATAAGTTATTAAGCGATGAATAATCCCTCAATATAAATATCTCTCACTTATTTAAA,–,0.134,–,–
ACAGACGAAGGAGCCGCAAAAAAGTTATTAAGGGATGAACAATCCCTCAATATAAATATCTCTCACTTATTTAAA,0.87,0.764,–,–
CGACATGTCCCGCTTCTTTCATTAATCCGTTATCAACTGTGTTGCTATATACATTTACCTTTTAAGAGGAGGAAT,–,–,0.27,–
CGACATGTCCCGCTTCTTTCATTAATCCGTTAGCAACTGTTTTGCTATATACATTAATCTTTTAAGAGGAGGAAT,–,–,1.54,–
CGACATGTCCCGCTTCTTTCATTAATCCGTTATCAACTGTATTGCTATATACATTTACCTTTTAAGAGGAGGAAT,–,–,0.306,–
CGACATGTCCCGCTTCTTTCATTAAACCGTTAGCAACTGTTATGCTATATACATTTACCTTTTAAGAGGAGGAAT,–,–,0.552,–
ACAGACGAAGGAGCCGCAAAGAAGCTATTAAGGAATGAATAATCCCTCAATATAAATATCTCTCACTTATTTAAA,0.108,0.101,–,–
ACAGACGAAGGAGCCGCTAAGAAGTTATTAAGGGATGAATTATCCCTCAATATAAATATCTCTCACTTATTTAAA,–,0.874,–,–
ACAGACGAAGGAGCCGCAATGAAGTTATTAAGGGATGAATAATCCCTCAATATAAATATCTCTCACTTATTTAAA,1.1,1.12,–,cleaved RNA product abundance [4]: 0.968
ACAGACGAAGGAGCCGCAAAGAAGTAATTAAGGGATGAATAATCCCTCAGTATAAATATCTCTCACTTATTTAAA,–,0.0878,–,–
CGACATGTCCCGCTTCTTTCATTAATCCGTTAGCAACTTTTTTGCTATAAACATTTACCTTTTAAGAGGAGGAAT,–,–,1.58,–
ACAGACGAAGGAGCCGCAAAGACGTTATTAAGGGATGAATAATTCCTCAATATAAATATCTCTCACTTATTTAAA,–,0.944,–,–
ACAGACGAAGGAGCCGCAAAGATGTTATTAAGGGATGCATAATCCCTCAATATAAATATCTCTCACTTATTTAAA,0.859,1.1,–,–
ACAGACGAAGGAGCCGCTAAGAAGTTACTAAGGGATGAATAATCCCTCAATATAAATATCTCTCACTTATTTAAA,0.186,–,–,–
ACAGACGAAGGAGCCGCAAAGAAGTTATTAAGGGATGAAAAATCCCTCAATATAAAAATCTCTCACTTATTTAAA,0.798,0.692,–,–
ACAGACGAAGGAGCCGCAATGAAGTTATTAAGGGATGAATAATTCCTCAATATAAATATCTCTCACTTATTTAAA,0.505,0.517,–,–
ACAGACGAAGGAGCCGCAAAGTAGTTAATAAGGGATGAATAATCCCTCAATATAAATATCTCTCACTTATTTAAA,0.292,0.433,–,–
CGACATGTCCCGCTTCTTTCATTAATCCGTCAGCAACTGTTTAGCTATATACATTTACCTTTTAAGAGGAGGAAT,–,–,0.305,–
ACAGACGAAGGAGCCGCAAAGAAGTTATTAAGGGAAGAATAATCCCTCTATATAAATATCTCTCACTTATTTAAA,–,0.239,–,–
ACAGACGAAGGAGCCGCAAAGAAGTTATTAAGGAATGAATAATCGCTCAATATAAATATCTCTCACTTATTTAAA,–,0.0645,–,–
CGACATGTCCCGCTTCTTTCATTAATCCGCGAGCAACTGTTTTGCTATATACATTTACCTTTTAAGAGGAGGAAT,–,–,0.318,–
ACAGACGAAGGAGCCGCAAAGAAGTTATTAAGGTCTGAATAATCCCTCAATATAAATATCTCTCACTTATTTAAA,–,0.0753,–,cleaved RNA product abundance [4]: 0.101
CGACATGTCCCGCTTCTTTCATTAATCCCTTAGCAACTGTTTTGCTAAATACATTTACCTTTTAAGAGGAGGAAT,–,–,0.149,–
CGACATGTCCCGCTTCTTTCATTAATCTGTTAGCAACTGTTTTACTATATACATTTACCTTTTAAGAGGAGGAAT,–,–,0.541,–
ACAGACGAAGGAGCCGCAAAGAAGTTATTAAGGGATGAATAATCCCTTAATATAAATATTTCTCACTTATTTAAA,–,0.494,–,–
ACAGACGAAGGAGCCGCAAAGAGGTTATTAAGGGATAAATAATCCCTCAATATAAATATCTCTCACTTATTTAAA,–,0.62,–,–
ACAGACGAAGGAGCCGCAAACAAGTTATTAAGGGATGAATAATCCCTCCATATAAATATCTCTCACTTATTTAAA,–,0.207,–,–
CGACATGTCCCGCTTCTTTCATTAATCCGTAAGCAACTTTTTTGCTATATACATTTACCTTTTAAGAGGAGGAAT,–,–,0.82,–
